Residue numbers refer to the chain shown, from its start. Each block holds one binder with its values, some of them ahead of it. Square brackets hold non-standard residues; d marks the D form. GABA = NCCCC(=O)O
How the values were obtained:
Assay in all cases: library pulldown, LC-MS of supernatant; ratio vs GFP-Nb control (0=captured, 1=not captured)
BC2T K4T = target: T1, BC2T K4T (human)
T1 construct: position 4 library, row T
T1 peptide: Ac-PDRTAAVSHWQQ-NH2
How it was run: (§1)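 Unbound peptide left in supernatant after 1 h pulldown in PBS/0.01% CHAPS measured by reversed-phase LC-MS (8–30% eluent B gradient, 20 min).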

BC2T R3S = target: T2, BC2T R3S (human)
T2 construct: position 3 library (BC2TR3X), row S
T2 peptide: Ac-PDSKAAVSHWQQ-NH2
How it was run: as §1

BC2T P1W = target: T3, BC2T P1W (human)
T3 construct: position 1 library, row W
T3 peptide: Ac-WDRKAAVSHWQQ-NH2
How it was run: as §1

BC2T A5K = target: T4, BC2T A5K (human)
T4 construct: position 5 library, row K
T4 peptide: Ac-PDRKKAVSHWQQ-NH2
How it was run: as §1

BC2T P1E = target: T5, BC2T P1E (human)
T5 construct: position 1 library, row E
T5 peptide: Ac-EDRKAAVSHWQQ-NH2
How it was run: as §1

BC2T A6F = target: T6, BC2T A6F (human)
T6 construct: position 6 library (BC2TA6X), row F
T6 peptide: Ac-PDRKAFVSHWQQ-NH2
How it was run: as §1

BC2T R3K = target: T7, BC2T R3K (human)
T7 construct: position 3 library (BC2TR3X), row K
T7 peptide: Ac-PDKKAAVSHWQQ-NH2
How it was run: as §1

BC2T V7K = target: T8, BC2T V7K (human)
T8 construct: position 7 library, row K
T8 peptide: Ac-PDRKAAKSHWQQ-NH2
How it was run: as §1

BC2T V7W = target: T9, BC2T V7W (human)
T9 construct: position 7 library, row W
T9 peptide: Ac-PDRKAAWSHWQQ-NH2
How it was run: as §1

BC2T D2N = target: T10, BC2T D2N (human)
T10 construct: position 2 library, row N
T10 peptide: Ac-PNRKAAVSHWQQ-NH2
How it was run: as §1

BC2T R3N = target: T11, BC2T R3N (human)
T11 construct: position 3 library (BC2TR3X), row N
T11 peptide: Ac-PDNKAAVSHWQQ-NH2
How it was run: as §1

BC2T K4R = target: T12, BC2T K4R (human)
T12 construct: position 4 library, row R
T12 peptide: Ac-PDRRAAVSHWQQ-NH2
How it was run: as §1

BC2T R3H = target: T13, BC2T R3H (human)
T13 construct: position 3 library (BC2TR3X), row H
T13 peptide: Ac-PDHKAAVSHWQQ-NH2
How it was run: as §1

BC2T K4W = target: T14, BC2T K4W (human)
T14 construct: position 4 library, row W
T14 peptide: Ac-PDRWAAVSHWQQ-NH2
How it was run: as §1

BC2T A6W = target: T15, BC2T A6W (human)
T15 construct: position 6 library (BC2TA6X), row W
T15 peptide: Ac-PDRKAWVSHWQQ-NH2
How it was run: as §1

BC2T V7Q = target: T16, BC2T V7Q (human)
T16 construct: position 7 library, row Q
T16 peptide: Ac-PDRKAAQSHWQQ-NH2
How it was run: as §1

BC2T A6C(Abu) = target: T17, BC2T A6C(Abu) (human, SMILES …)
T17 construct: position 6 library (BC2TA6X), row C(Abu) / C*
T17 peptide: Ac-PDRKA[GABA]VSHWQQ-NH2
How it was run: as §1

BC2T P1C(Abu) = target: T18, BC2T P1C(Abu) (human, SMILES …)
T18 construct: position 1 library, row C(Abu) / C*
T18 peptide: Ac-[GABA]DRKAAVSHWQQ-NH2
How it was run: as §1

BC2T R3C(Abu) = target: T19, BC2T R3C(Abu) (human, SMILES …)
T19 construct: position 3 library (BC2TR3X), row C(Abu) / C*
T19 peptide: Ac-PD[GABA]KAAVSHWQQ-NH2
How it was run: as §1

BC2T R3E = target: T20, BC2T R3E (human)
T20 construct: position 3 library (BC2TR3X), row E
T20 peptide: Ac-PDEKAAVSHWQQ-NH2
How it was run: as §1

BC2T A5D = target: T21, BC2T A5D (human)
T21 construct: position 5 library, row D
T21 peptide: Ac-PDRKDAVSHWQQ-NH2
How it was run: as §1

- ratio (BC2T K4T): 0.2
- ratio (BC2T R3S): 0.6
- ratio (BC2T P1W): 0.1
- ratio (BC2T A5K): 0.2
- ratio (BC2T P1E): 0.9
- ratio (BC2T A6F): 1
- ratio (BC2T R3K): 0.2
- ratio (BC2T V7K): 0.3
- ratio (BC2T V7W): 0.1
- ratio (BC2T D2N): 0.2
- ratio (BC2T R3N): 0.7
- ratio (BC2T K4R): 0.1
- ratio (BC2T R3H): 0.3
- ratio (BC2T K4W): 0.3
- ratio (BC2T A6W): 1.1
- ratio (BC2T V7Q): 0.4
- ratio (BC2T A6C(Abu)): 0.1
- ratio (BC2T P1C(Abu)): 0.1
- ratio (BC2T R3C(Abu)): 0.5
- ratio (BC2T R3E): 1
- ratio (BC2T A5D): 0.5
B1: BC2 nanobody (BC2-Nb) (VHH)
VHH: QVQLVESGGGLVQPGGSLTLSCTASGFTLDHYDIGWFRQAPGKEREGVSCINNSDDDTYYADSVKGRFTIFMDNAKDTVYLQMNSLKPEDTAIYYCAEARGCKRGRYEYDFWGQGTQVTVSS
notes: immobilised on agarose/sepharose beads in this assay; also called BC2 nanotrap (immobilised form); not shown: C-terminal 6xHis-tag added by pHEN6 vector

- ratio (BC2T K4T): 0.7
- ratio (BC2T R3S): 0.9
- ratio (BC2T P1W): 0.3
- ratio (BC2T A5K): 0.2
- ratio (BC2T P1E): 0.8
- ratio (BC2T A6F): 0.9
- ratio (BC2T R3K): 0.5
- ratio (BC2T V7K): 0.3
- ratio (BC2T V7W): 0.3
- ratio (BC2T D2N): 0.3
- ratio (BC2T R3N): 1
- ratio (BC2T K4R): 0.1
- ratio (BC2T R3H): 0.7
- ratio (BC2T K4W): 0.8
- ratio (BC2T A6W): 1
- ratio (BC2T V7Q): 0.5
- ratio (BC2T A6C(Abu)): 0.3
- ratio (BC2T P1C(Abu)): 0.3
- ratio (BC2T R3C(Abu)): 0.9
- ratio (BC2T R3E): 1
- ratio (BC2T A5D): 0.9
B2: BC2-NbR106S (VHH)
VHH: B1 VHH with R106S
notes: immobilised on beads in this assay; not shown: C-terminal 6xHis-tag added by pHEN6 vector
